Reference: patent US20030092037A1, “Elk1 phosphorylation related gene” (priority 2001, published 2003)

Test system: MAP kinase cascade activation
Assay: Reporter activity reflecting MAP kinase cascade activation, corrected using an internal control (Elk1-GAL4 luciferase reporter in 293-EBNA cells)
Format: cell-based, human
Settings: for Reporter activity corrected with internal control, as a factor of null vector (S/B value): 293-EBNA cells, 24 hours; for Dependence of corrected reporter activity on amount of expression plasmid: plasmid 12.5 ng, 25 ng, 50 ng and 100 ng
Protocol: (in the presence of 5% CO2). […] The method used for introduction was in accordance with the attached protocol. After culturing for 24 hours at 37° C., reporter activity (firefly luciferase acitivity), which reflects MAP kinase cascade activation, and reporter activity being the internal control (sea pansy luciferase) were measured using Picagene Dual (purchased from Toyo Ink Manufacturing) in accordance with the manufacturer's instructions.
Luciferase activity was measured with Perkin Elmer's Wallac ARVOTMST 1420 MULTILABEL COUNTER.
Reporter activity where an expression plasmid comprising the above gene was introduced, which reflects MAP kinase cascade activation corrected with internal control reporter activity, is shown in Table 1, which is expressed as a factor of the same reporter activity where a null vector was introduced (S/B value).

[1] = 12.5 ng/well expression plasmid

| Molecule | Reporter activity corrected with internal control, as a factor of null vector (S/B value) (25 ng/well expression plasmid) | Reporter activity corrected with internal control, as a factor of null vector (S/B value) (50 ng/well expression plasmid) | Reporter activity corrected with internal control, as a factor of null vector (S/B value) (100 ng/well expression plasmid) | Dependence of corrected reporter activity on amount of expression plasmid | Reporter activity corrected with internal control, as a factor of null vector (S/B value) [1] |
| --- | --- | --- | --- | --- | --- |
| 146 (protein, listed as Homo sapiens) MNHIVQTFSPVNSGQPPNYEMLKEEQEVAMLGAPHNPAPPTSTVIHIRSETSVPDHVVWSLFNTLFMNTCCLGFIAFAYSVKSRDRKMVGDVTGAQAYASTAKCLNIWALILGIFMTILLVIIPVLVVQAQR | 3.5 | 5.6 | 8.8 | increases that were dependent on the amount of expression plasmid |  |
| 132 (protein, listed as Mus musculus) MAGRTMQAARCPTDELSLSNCAVVNEKDFQSGQHVMVRTSPNHKHIFTLRTHPSVVPGCIAFSLPQRKWAGLSIGQDIEVALYSFDKAKQCIGTMTIEIDFLQKKNIDSNPYDTDKMAAEFIQQFNNQAFSVGQQLVFSFNDKLFGLLVKDIEAMDPSILKGEPASGKRQKIEVGLVVGNSQVAFEKAENSSLNLIGKAKTKENRQSIINPDWNFEKMGIGGLDKGFSDIFRRAFASRVFPPEIVEQMGCKHVRGILLYGPPGCGKTLLARQIGKMLNAREPKVVNGPEILNKYVGESEANIRKLFADAEEEQRRLGANSGLHIIIFDEIDAICKQRGSMAGSTGVHDTVVNQLLSKIDGVEQLNNILVIGMTNRPDLIDEALLRPGRLEVKMEIGLPDEKGRLQILHIHTARMRGHQLLSADVDIKELAVETKNFSGAELEGLVRAAQSTAMNRHIKASTKVEVDMEKAESLQVTRGDFLASLENDIKPAFGTNQEDYASYIMNGIIKWGDPVTRVLDDGELLVQQTKNSDRTPLVSVLLEGPPHSGKTALAAKIAEESNFPFIKICSPDKMIGFSETAKCQAMKKIFDDAYKSQLSCVVVDDIERLLDYVPIGPRFSNLVLQALLVLLKKAPPQGRKLLIIGTTSRKDVLQEMEMLNAFSTTIHVPNIATGEQLLEALELLGNFKDKERTTIAQQVKGKKVWIGIKKLLMLIEMSLQMDPEYRVRKFLALMREEGASPLDFD | 10.1 | 16.6 |  | increases that were dependent on the amount of expression plasmid | 5.6 |
| 122 (protein, listed as Mus musculus) MAPAGCGCGCSGSLGAAVVRPLLLLLGALACVRATEHYSPLSLLKQELQHRQQQEAPAGGGCPQSGDWADQYPECESSFLNFHESDCELRGSAPCDSLLSLNTEKILSQAKSIAEQKRFPFATDNDSTNEELAIAYVLVGSGLYDEAIRHFSTMLQEAIEAFKEALKQKVDFIDAYKSLGQAYRELGNFDAATESFQKALLLNQNHVQTQQLRGMMLYHHGSLQEALKNFKRCLQLEPYNELCQYMKGLSHVAMGQFYEGIKAQTKVMLNDPLPGQKASPEYLRVKYLREYSRYLHAHLDTPLTEYNIDSDLPGSFKDHWAKNLPFLIDGYEEQPGLQPHIRDVLHQNFEGYKPEVQELICVADRLGSLMQYETPGFLPNKRIHRAMGLAALEVMQAVHRTWTNSKVRMNGKTRLLQWRDMFDIAVKWRRIADPDQPVLWLDQMPAPSLSRGFNNHINLIRGQVINMRYLEYFEKILHFIKDRILVYHGANNPKGLLEVREALEKVHKVEDLLPIMKQFNTKTKDGFTVNTKVPSLKDQGKEYDGFTITITGDKVGNILFSVETQTTEERTQLYHAEIDALYKDLTAKGKVLTLSAEFGEADAVCNLILSLVYYFYNLMPLSRGSSVIAYSVIVGALMASGKEVAGKIPKGKLVDFEAMTAPGSEAFSKIAKSWMNLKSISPSYKTLPSVSETFPTLRSMIEVLNTDSTPRCLKKL | 2.9 | 6.8 |  | increases that were dependent on the amount of expression plasmid | 1.8 |
